Measurements published in article PMC11910882.

Target: SlNSP2-GST (Solanum lycopersicum (tomato), UniProt A0A3Q7ITG8 1-487)
Test: EMSA

B1: pSlABCG44-WT (dsDNA)
DNA 1: GAGTGAATTTGTTTGGTTCAATTTTGTCC
DNA 2: GGACAAAATTGAACCAAACAAATTCACTC
  binding result: no binding
